{
  "source": "paper PMC5794259",
  "about": "“Novel ATP-cone-driven allosteric regulation of ribonucleotide reductase via the radical-generating subunit” (eLife, 2018)",
  "binders": {"B1": {"name": "Leeuwenhoekiella blandensis NrdBi (wild type NrdB, radical-generating subunit of class I ribonucleotide reductase) (enzyme, UniProt A3XHF9 1-427, looked up)", "chain": "MSSQEIKKIIKRDYSTAPFVLEKITNAIANAMAALGHGSEQDAKLISMQVYESLLNNKEQESEYIPTVEQVQDMVEDKLMSSEFHDVAKAYIIYRNKRALERKTNIFEKRINLKPYEYPELNEYVAAIRHSYWIHTEFNFTSDIQDFKTGLSEVERSAIKNTMLAISQIEVAVKTFWGDVHHRLPKPEIAAVGATFAESEVRHHDAYSHLLEILGLNEEFKELKKKPVIMKRVHYLETSLKHAKSDDDREYTESILLFALFIEHVSLFSQFLIIMAFNKHKNMLKGISNAVEATSKEEQIHGDFGVDIINIIKKENPEWFDEEHNNLIKEMCLNSFEAESKVVDWIFEKGELDFLPKAVINEFLKNRFNKSLEAIGLEKLFDIDEALLQETEWFDDEIIGTKHGDFFVKRSINYSKRTQSITSDDLF", "notes": "NrdBi, radical-generating subunit of the class I RNR of Leeuwenhoekiella blandensis sp. nov. strain MED217; GenBank EAQ51288; amplified from genomic DNA with primers from the start codon to the stop codon; ATP-cone 1-103, linker 104-106, core 107-398, C-terminus 399-427; pET-28a(+) construct with N-terminal hexahistidine tag and thrombin site; Oligomeric state depends on nucleotide: dimer with …"}},
  "key": {"[1]": {"target": "the molecule itself", "assay": "SEC; with 100 µM dATP; Superdex 200 10/300 GL at room temperature; 50 mM Tris-HCl pH 7.6, 150 mM KCl, 10 mM MgCl2; NrdB 10 µM, NrdA at rising concentrations"}, "[2]": {"target": "B1", "assay": "SEC; with 3 mM ATP in sample and buffer; Superdex 200 PC 3.2/30 at 7°C; 50 mM Tris-HCl pH 8, 50 mM KCl, 10% glycerol, 10 mM magnesium acetate, 2 mM DTT; proteins 20 µM each; eluted fractions analysed by SDS PAGE", "settings": "both partners purified"}, "[3]": {"target": "the molecule itself", "assay": "crystal structure; NrdB 9.6 mg/ml with 20 mM MgCl2, 2 mM TCEP, 5 mM dATP; 0.2 M CaCl2, 0.1 M Tris pH 8.0, 20% PEG 600, 3% 6-aminohexanoic acid, 20°C; space group P1, one tetramer in the unit cell"}, "[4]": {"target": "the molecule itself", "assay": "SEC; with ATP; Superdex 200 10/300 GL at room temperature; 50 mM Tris-HCl pH 7.6, 150 mM KCl, 10 mM MgCl2; NrdB 10 µM"}, "[5]": {"target": "the molecule itself", "assay": "GEMMA (gas-phase electrophoretic macromolecule analysis); with 50 µM dATP and equimolar magnesium acetate; 20 mM ammonium acetate pH 7.5, 0.005% Tween 20; NrdB 0.1 mg/ml (~2 µM) or NrdB∆99"}},
  "data": [
    {"binder": "Leeuwenhoekiella blandensis NrdAi (NrdA, catalytic subunit of class I ribonucleotide reductase) (enzyme, UniProt A3XHF8 1-600, looked up, NrdAi, catalytic subunit of the class I RNR of Leeuwenhoekiella blandensis sp. nov. strain MED217; amplified from genomic DNA with primers from the start codon to the stop codon; pET-nrdA with N-terminal hexahistidine tag and thrombin site; no cleavage is told for NrdA (theoretical monomer mass printed as 70.6 kDa); source: E. coli BL21(DE3), pET-28a(+), purified (HisTrap Ni Sepharose, gel …)) MRENTTKLENSTETNVQHTKDNDLLKARRDALQDATEKNTDEPSFDWLTEHSRSFLAAGYLSEGVSAEERIREIADRAEEILRMPGFSDKFYKYMGEGYFSLASPVWSNFGKKRGLPISCFGSHIDDDMGNILYTQSEVGMMSKLGGGTSGYFGKIRHRGAAVKNNGYASGAVHIMQLFDKMVDVVSQGSVRRGRFSPYLPISHPDIKEFLEIGTEGNSIQQLTHGVTVDSTWMQEMIDGDTDKREVWAKVLQRRGEMGYPYIFYTDNANNGKPDVYKDKGHDIYASNLCTEIMLPSSDEWSFVCVLSSINVLHYDKWKNTDAVETMVCFLDAVLTEFIDKLEEYRDSDNRDHRQTFMFMERAYNFAKSNRALGLGVLGWHSLLQSKRHAFDSQEAYDLNSEIFREIKQRSYKASEELAEKFGEPETLKGYGRRNATLNAIAPTTSSAFILGQVSQGIEPIWSNVYVKDIAKIKTTIKNPFLEELFEEKGMNTPEVWRSVRDNDGSVQHLEFLTEQEKDVFKTYAEIDQMAIIYQAANRQNHIDQGQSINLLVHPDMPIKEINKIHITAWKLGLKSLYYQHSMNAAQKFKQKKECVSCEA", "values": [
      {"measurement": "stoichiometry N", "setting": "[1]", "value": 2},
      {"measurement": "stoichiometry N", "setting": "[2]", "value": 1}
    ]},
    {"binder": "Leeuwenhoekiella blandensis NrdB, thrombin-cleaved (used for crystallization) (enzyme, three additional residues (GlySerHis) left at the N-terminus from the thrombin cleavage site; NrdBi of Leeuwenhoekiella blandensis sp. nov. strain MED217; GenBank EAQ51288; Crystallized with 5 mM dATP, 20 mM MgCl2; two dATP per ATP-cone; metal site occupied by Ca2+ from the crystallization medium; also called thrombin-cleaved NrdB; source: E. coli BL21(DE3), purified (HisTrap, gel filtration), …) GSHMSSQEIKKIIKRDYSTAPFVLEKITNAIANAMAALGHGSEQDAKLISMQVYESLLNNKEQESEYIPTVEQVQDMVEDKLMSSEFHDVAKAYIIYRNKRALERKTNIFEKRINLKPYEYPELNEYVAAIRHSYWIHTEFNFTSDIQDFKTGLSEVERSAIKNTMLAISQIEVAVKTFWGDVHHRLPKPEIAAVGATFAESEVRHHDAYSHLLEILGLNEEFKELKKKPVIMKRVHYLETSLKHAKSDDDREYTESILLFALFIEHVSLFSQFLIIMAFNKHKNMLKGISNAVEATSKEEQIHGDFGVDIINIIKKENPEWFDEEHNNLIKEMCLNSFEAESKVVDWIFEKGELDFLPKAVINEFLKNRFNKSLEAIGLEKLFDIDEALLQETEWFDDEIIGTKHGDFFVKRSINYSKRTQSITSDDLF", "values": [
      {"measurement": "stoichiometry N", "setting": "[3]", "value": 4}
    ]},
    {"binder": "B1", "values": [
      {"measurement": "stoichiometry N", "setting": "[4]", "value": 2},
      {"measurement": "stoichiometry N", "setting": "[5]", "value": 4}
    ]}
  ]
}
